Measured values published in article PMC8034861.

Target: Alexa Fluor 488-PR30 peptide (human)
Test: single-molecule TIRF motility assay, co-transport of peptide foci with motors; 1 μM fluorescent PR30 with KIF5B::GFP or TMR-dynein-dynactin-BICD2N on immobilised microtubules; motility buffer with 25 mM KCl, α-casein, 5 mM MgATP; 23 ± 1°C; foci of PR30 moving with processive motors scored on kymographs

Alexa Fluor 488-PR30 peptide (human), sequence (peptide, as listed by the source): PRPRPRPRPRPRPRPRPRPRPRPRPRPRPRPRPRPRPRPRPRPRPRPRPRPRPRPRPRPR

- percent of processive motor complexes transporting large foci of PR30: 8.1%
Substance: TMR-dynein-dynactin-BICD2N complex (from UniProt Q14204 1-4646; A0A287B8J2 1-1281)
